The target of experiment [1] is T1, murine SND1 R255E (shRNA-resistant construct) (mouse, UniProt Q78PY7 1-910).
T1 sequence (looked up): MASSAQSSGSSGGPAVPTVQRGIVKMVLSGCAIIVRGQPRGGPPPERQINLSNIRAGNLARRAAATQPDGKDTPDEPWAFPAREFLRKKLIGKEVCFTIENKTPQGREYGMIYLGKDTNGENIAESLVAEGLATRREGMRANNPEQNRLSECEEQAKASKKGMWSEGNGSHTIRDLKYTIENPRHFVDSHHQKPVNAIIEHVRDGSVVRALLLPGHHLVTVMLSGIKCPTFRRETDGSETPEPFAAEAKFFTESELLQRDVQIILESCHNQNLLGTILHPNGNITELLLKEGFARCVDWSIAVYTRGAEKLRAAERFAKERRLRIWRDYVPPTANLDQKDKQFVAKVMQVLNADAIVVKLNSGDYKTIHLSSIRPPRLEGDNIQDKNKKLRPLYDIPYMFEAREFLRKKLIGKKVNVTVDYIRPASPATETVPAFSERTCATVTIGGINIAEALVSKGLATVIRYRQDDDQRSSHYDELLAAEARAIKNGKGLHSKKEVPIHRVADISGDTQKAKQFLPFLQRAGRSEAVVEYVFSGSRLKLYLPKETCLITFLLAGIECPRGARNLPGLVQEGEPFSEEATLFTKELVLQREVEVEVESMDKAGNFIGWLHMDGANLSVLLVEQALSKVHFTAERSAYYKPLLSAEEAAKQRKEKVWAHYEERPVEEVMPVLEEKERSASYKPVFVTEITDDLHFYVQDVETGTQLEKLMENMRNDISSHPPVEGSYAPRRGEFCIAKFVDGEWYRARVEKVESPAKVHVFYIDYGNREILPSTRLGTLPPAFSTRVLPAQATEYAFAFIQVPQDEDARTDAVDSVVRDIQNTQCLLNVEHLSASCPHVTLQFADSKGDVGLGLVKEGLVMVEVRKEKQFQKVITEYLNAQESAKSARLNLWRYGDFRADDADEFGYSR
The experiment is described as follows: co-IP (anti-MTDH) from SND1-KD PyMT;Mtdh+/+ tumor cells reconstituted with SND1 constructs, western blot. Background: In western blotting, separated proteins are transferred to a membrane and probed.

Experiment [2] has as its target T2, murine SND1 F250A (shRNA-resistant construct) (mouse, UniProt Q78PY7 1-910).
T2 sequence (looked up): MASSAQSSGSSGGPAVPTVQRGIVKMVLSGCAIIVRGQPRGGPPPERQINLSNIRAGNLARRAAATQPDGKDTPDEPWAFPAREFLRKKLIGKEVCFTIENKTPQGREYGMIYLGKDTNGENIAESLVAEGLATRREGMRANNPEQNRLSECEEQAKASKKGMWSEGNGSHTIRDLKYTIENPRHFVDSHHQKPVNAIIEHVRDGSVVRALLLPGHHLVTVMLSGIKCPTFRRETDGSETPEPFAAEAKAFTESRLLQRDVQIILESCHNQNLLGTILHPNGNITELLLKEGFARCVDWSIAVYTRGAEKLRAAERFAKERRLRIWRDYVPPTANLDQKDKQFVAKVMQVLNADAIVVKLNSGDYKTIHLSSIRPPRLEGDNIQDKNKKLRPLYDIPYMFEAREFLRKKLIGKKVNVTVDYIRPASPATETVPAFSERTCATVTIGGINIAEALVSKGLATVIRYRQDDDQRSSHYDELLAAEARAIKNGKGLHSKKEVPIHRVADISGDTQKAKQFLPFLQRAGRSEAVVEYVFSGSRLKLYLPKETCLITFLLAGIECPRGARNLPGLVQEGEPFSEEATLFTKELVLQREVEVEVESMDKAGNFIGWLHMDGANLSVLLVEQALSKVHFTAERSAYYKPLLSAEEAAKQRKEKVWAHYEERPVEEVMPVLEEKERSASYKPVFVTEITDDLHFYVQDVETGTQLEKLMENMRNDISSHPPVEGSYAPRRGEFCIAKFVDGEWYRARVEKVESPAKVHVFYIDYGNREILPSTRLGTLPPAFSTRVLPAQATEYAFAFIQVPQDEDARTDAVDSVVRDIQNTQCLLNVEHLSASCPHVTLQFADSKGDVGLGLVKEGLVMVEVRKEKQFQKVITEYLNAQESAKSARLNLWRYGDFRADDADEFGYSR
Described as above.

The next experiment concerns the target T3, murine SND1, wild type (mouse, UniProt Q78PY7 1-910).
T3 construct: Endogenous protein of murine PyMT mammary tumor cells; also called SND1 (in PyMT tumor cells); WT shRNA-resistant murine SND1
T3 sequence (looked up): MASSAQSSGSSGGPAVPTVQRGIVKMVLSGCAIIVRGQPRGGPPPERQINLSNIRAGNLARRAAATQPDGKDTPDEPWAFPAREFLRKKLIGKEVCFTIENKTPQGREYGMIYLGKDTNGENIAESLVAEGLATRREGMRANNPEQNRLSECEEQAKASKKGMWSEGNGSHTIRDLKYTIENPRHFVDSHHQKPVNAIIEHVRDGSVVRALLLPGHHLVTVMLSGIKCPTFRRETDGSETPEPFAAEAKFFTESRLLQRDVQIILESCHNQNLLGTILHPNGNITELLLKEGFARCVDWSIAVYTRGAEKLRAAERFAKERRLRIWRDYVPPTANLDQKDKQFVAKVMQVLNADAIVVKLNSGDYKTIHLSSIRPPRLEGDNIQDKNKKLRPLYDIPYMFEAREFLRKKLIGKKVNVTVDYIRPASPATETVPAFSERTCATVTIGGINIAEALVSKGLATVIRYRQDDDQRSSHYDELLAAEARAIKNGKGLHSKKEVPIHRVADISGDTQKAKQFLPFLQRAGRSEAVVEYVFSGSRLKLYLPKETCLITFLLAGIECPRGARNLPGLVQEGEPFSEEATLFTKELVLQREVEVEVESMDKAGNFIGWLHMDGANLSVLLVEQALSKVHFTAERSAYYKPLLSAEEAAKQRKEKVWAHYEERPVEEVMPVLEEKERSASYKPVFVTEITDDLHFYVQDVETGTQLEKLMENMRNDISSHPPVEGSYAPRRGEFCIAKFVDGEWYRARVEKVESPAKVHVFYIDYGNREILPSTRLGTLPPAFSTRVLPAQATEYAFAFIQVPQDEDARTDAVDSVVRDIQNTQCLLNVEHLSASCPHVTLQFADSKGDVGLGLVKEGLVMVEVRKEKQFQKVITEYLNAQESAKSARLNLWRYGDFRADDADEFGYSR
The experiment is described as follows: anti-MTDH co-IP from PyMT;Mtdh-/- tumor cells reconstituted with murine MTDH, western blot. On the procedure:
(FIG. 23A) Lysates from PyMT;Mtdh−/− tumor cells reconstituted with vector control, WT or mutant murine MTDH were immunoprecipitated with anti-MTDH antibody and immunoblotted for indicated proteins. Note all amino acid annotations are based on human MTDH. W394 and W401 of human MTDH correspond to W391 and W398 in murine MTDH, respectively. (FIG. 23B) Mammosphere assays were performed with PyMT;Mtdh−/− tumor cells reconstituted with indicated MTDH constructs. (FIG. 23C-E) In vivo tumor formation (FIG. 23C for tumor incidence; FIG. 23D, FIG. 23E for tumor volumes) were performed at limiting numbers using PyMT;Mtdh−/− tumor cells reconstituted with indicated WT or mutant MTDH. Statistics: (FIG. 23B) Student's t-test. Data represent mean±SEM. (FIG. 23C) Limiting dilution analysis. (FIG. 23D, FIG. 23E) Mann-Whitney test. **p<0.01, *p<0.05.
Immunoprecipitation and western blot: For in vivo immunoprecipitation (IP) experiments, cultured cells were washed in cold PBS and lysed in lysis buffer (20 mM Tris pH 7.4, 0.15 M NaCl, 1 mM EDTA, 1 mM EGTA, 1% Tx-100, 0.0025 M Na2P2O7, 1 mM β-glycerolphosphate, 1 mM Na3VO4, and 1 mM NaF) with an EDTA-free protease inhibitor mixture (Roche Applied Science) and PMSF. Cell lysates were then incubated on ice for 10 min, centrifuged, and precleared by incubating with protein A/G beads (Santa Cruz Biotechnology) for 1 h at 4° C. […]

B1: murine MTDH, wild type (other, mouse, UniProt Q80WJ7 1-579, looked up)
chain: MAARSWQDELAQQAEEGSARLRELLSVGLGFLRTELGLDLGLEPKRYPGWVILVGTGALGLLLLFLLGYGWAAACAGARKKRRSPPRKREEAAPPTPAPDDLAQLKNLRSEEQKKKNRKKLPEKPKPNGRTVEVPEDEVVRNPRSITAKQAPETDKKNEKSKKNKKKSKSDAKAVQNSSRHDGKEVDEGAWETKISHREKRQQRKRDKVLTDSGSLDSTIPGIENIITVTTEQLTTASFPVGSKKNKGDSHLNVQVSNFKSGKGDSTLQVSSRLNENLTVNGGGWSEKSVKLSSQLSEEKWNSVPPASAGKRKTEPSAWTQDTGDTNANGKDWGRNWSDRSIFSGIGSTAEPVSQSTTSDYQWDVSRNQPYIDDEWSGLNGLSSADPSSDWNAPAEEWGNWVDEDRASLLKSQEPISNDQKVSDDDKEKGEGALPTGKSKKKKKKKKKQGEDNSHTQDTEDLEKDTREELPVNTSKARPKQEKACSLKTMSTSDPAEVLIKNSQPVKTLPPAISAEPSITLSKGDSDNSSSQVPPMLQDTDKPKSNAKQNSVPPSQTKSETNWESPKQIKKKKKARRET
notes: Re-expressed by lentivirus in PyMT;Mtdh-/- tumor cells; also used for the endogenous protein of PyMT;Mtdh+/+ cells (same protein); also called mouse MTDH; WT MTDH (murine form)
With B1, the binding result is on record as “no binding” in experiment [1]; “no binding” in experiment [2]; “binds” with murine SND1, wild type.
